# Source: patent US20210088514A1 (ACADEMIA SINICA, published 2021)
# T1: epithelial cell adhesion molecule (EpCAM) (UniProt P16422 24-314, limits assumed)
# T1 construct: whole, on cells; also called EpCAM membrane protein
# T1 sequence (looked up): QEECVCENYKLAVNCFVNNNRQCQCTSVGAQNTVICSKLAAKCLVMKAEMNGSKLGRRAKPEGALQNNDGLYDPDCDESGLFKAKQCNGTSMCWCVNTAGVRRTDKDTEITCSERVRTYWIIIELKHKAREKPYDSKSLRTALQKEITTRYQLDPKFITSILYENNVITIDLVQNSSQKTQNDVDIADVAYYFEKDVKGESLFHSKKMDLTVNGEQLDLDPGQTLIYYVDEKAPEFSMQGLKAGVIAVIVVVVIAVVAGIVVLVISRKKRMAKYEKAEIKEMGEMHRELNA
# B1: biotinylated EpAb4-1 antibody (antibody, V domains shown)
# VH: QIQLVQSGPELKKPGETVKISCKASGYTFTNYGMNWVKQAPGKGLKWMGWINTYTGEPTYGDDFKGRFAFSLETSASTAYLQINNLKNEDTATYFCARFGRSVDFWGQGTSVTVSS
# VL: DIVMTQAAFSNPVTLGTSASISCRSSKSLLHSNGITYLYWYLQKPGQSPQLLIYHMSNLASGVPDRFSSSGSGTDFTLRISRVEAEDVGIYYCAQNLENPRTFGGGTKLEIK
# modifications: biotinylated with Sulfo NHS-LC-Biotin; ratio of biotin and antibody 1.5 to 1; sites not stated
# notes: Immobilised through streptavidin on the surface coating in the assay; also called bEpAb4-1; biotinylated anti-EpCam antibody
# Target: T1, epithelial cell adhesion molecule …
# Assay: capture of HCT116 and SAS cells on antibody surface coating, colorimetric read-out at OD 490 nm
# Description: The binding specificity of biotinylated OC9801 antibody, biotinylated EpAb4-1 antibody and biotinylated EpCam antibody (commercially available from R&D system, USA) were examined using the HCT116 (colorectal) CTCs and SAS (tongue) CTCs.
# The CTC binding specificy of the antibodies was determined by colorimetric method, by measuring the absorption optical density at 490 nm.
binder,measurement,value
B1,binding result,binds
